The target in the assay is Escherichia coli FtsZ (Escherichia coli) (UniProt P0A9A6).

For the substance “Escherichia coli FtsZ (from UniProt P0A9A6 1-383) (natural protein)”, the Pi released by GTP hydrolysis (MESG/PNP phosphate assay), endpoint as percent of the theoretical maximum, pH 6.0, 0.2 mM GTP, 11 uM FtsZ worked out at 90%; the Pi released by GTP hydrolysis (MESG/PNP phosphate assay), endpoint as percent of the theoretical maximum, pH 6.5, 0.2 mM GTP, 11 uM FtsZ worked out at 96%; the Pi released by GTP hydrolysis (MESG/PNP phosphate assay), endpoint as percent of the theoretical maximum, pH 7.0, 0.2 mM GTP, 11 uM FtsZ is 87%.

The values are drawn from paper PMC3125165.
